By Kd is commonly meant the constant that tells how readily two partners part at equilibrium.

In data set [1] the target is FAN1 WT;PCNA D232A (human;human, UniProt Q9Y2M0;P12004 1-1017;1-261, |D232A). The experiment in a line: SPR; FAN1 titrated, 10 µM PCNA D232A; MST: 25 mM HEPES pH 7.5, 125 mM KCl, 10 mM CaCl2, 5% glycerol, 1 mM TCEP, 0.005% Tween-20, 0.1% BSA, 10 nM Cy5-DNA, 25 °C; SPR buffer not in the material. To be noted: protein: recombinant;recombinant; tags: His tag removed by PreScission;His tag removed by PreScission; copies: 1;3; label: 5'-biotin (SPR); blunt; one unpaired nt in strand 2. (In general: Surface plasmon resonance follows binding to a sensor surface in real time, without labels.)

Data set [2] has as its target T1, FAN1 WT (human, UniProt Q9Y2M0 1-1017). The experiment in a line: SPR; no PCNA; MST: 25 mM HEPES pH 7.5, 125 mM KCl, 10 mM CaCl2, 5% glycerol, 1 mM TCEP, 0.005% Tween-20, 0.1% BSA, 10 nM Cy5-DNA, 25 °C; SPR buffer not in the material. To be noted: protein: recombinant; tags: His tag removed by PreScission; label: 5'-biotin (SPR); blunt; one unpaired nt in strand 2.

Data set [3] concerns the target PCNA WT;trFAN1 WT (human;human, UniProt P12004;Q9Y2M0 1-261;371-1017, |). The experiment in a line: SPR; PCNA titrated, 100 nM trFAN1; MST: 25 mM HEPES pH 7.5, 125 mM KCl, 10 mM CaCl2, 5% glycerol, 1 mM TCEP, 0.005% Tween-20, 0.1% BSA, 10 nM Cy5-DNA, 25 °C; SPR buffer not in the material. To be noted: protein: recombinant;recombinant; tags: His tag removed by PreScission;His tag removed by PreScission; chain copies: 3;1; label: 5'-biotin (SPR); blunt; one unpaired nt in strand 2.

For data set [4], the target named is PCNA D232A;trFAN1 R507H (human;human, UniProt P12004;Q9Y2M0 1-261;371-1017, D232A|R507H). Described as above. To be noted: protein: recombinant;recombinant; tags: His tag removed by PreScission;His tag removed by PreScission; chain copies: 3;1; label: 5'-biotin (SPR); blunt; one unpaired nt in strand 2.
Data set [5] deals with PCNA WT;FAN1 R507H (human;human, UniProt P12004;Q9Y2M0 1-261;1-1017, |R507H). As to the kind of experiment: SPR; PCNA titrated, 100 nM FAN1; MST: 25 mM HEPES pH 7.5, 125 mM KCl, 10 mM CaCl2, 5% glycerol, 1 mM TCEP, 0.005% Tween-20, 0.1% BSA, 10 nM Cy5-DNA, 25 °C; SPR buffer not in the material. To be noted: protein: recombinant;recombinant; tags: His tag removed by PreScission;His tag removed by PreScission; chain copies: 3;1; label: 5'-biotin (SPR); blunt; one unpaired nt in strand 2.

In data set [6] the target is T2, PCNA WT;FAN1 WT (human;human, UniProt P12004;Q9Y2M0 1-261;1-1017, |). Described as above. To be noted: protein: recombinant;recombinant; tags: His tag removed by PreScission;His tag removed by PreScission; chain copies: 3;1; label: 5'-biotin (SPR); blunt; one unpaired nt in strand 2.
The target in data set [7] is FAN1 WT;PCNA WT (human;human, UniProt Q9Y2M0;P12004 1-1017;1-261, |). The experiment in a line: SPR; FAN1 titrated, 10 µM PCNA WT; MST: 25 mM HEPES pH 7.5, 125 mM KCl, 10 mM CaCl2, 5% glycerol, 1 mM TCEP, 0.005% Tween-20, 0.1% BSA, 10 nM Cy5-DNA, 25 °C; SPR buffer not in the material. To be noted: protein: recombinant;recombinant; tags: His tag removed by PreScission;His tag removed by PreScission; copies: 1;3; label: 5'-biotin (SPR); blunt; one unpaired nt in strand 2.

Data set [8] deals with T2, PCNA WT;FAN1 WT. The experiment in a line: SPR; 100 nM FAN1; Kd within 4-fold of homoduplex; koff 8.9e-3 s-1, slowest; MST: 25 mM HEPES pH 7.5, 125 mM KCl, 10 mM CaCl2, 5% glycerol, 1 mM TCEP, 0.005% Tween-20, 0.1% BSA, 10 nM Cy5-DNA, 25 °C; SPR buffer not in the material. To be noted: protein: recombinant;recombinant; tags: His tag removed by PreScission;His tag removed by PreScission; chain copies: 3;1; label: 5'-biotin (SPR); blunt; (CAG)2 loop in strand 1.

Data set [9] addresses trFAN1 crystallization construct (human, UniProt Q9Y2M0 364-1017, R507H;K794A;del510-518). As to the kind of experiment: X-ray crystallography; 2.65 Å; MST: 25 mM HEPES pH 7.5, 125 mM KCl, 10 mM CaCl2, 5% glycerol, 1 mM TCEP, 0.005% Tween-20, 0.1% BSA, 10 nM Cy5-DNA, 25 °C; SPR buffer not in the material. To be noted: protein: recombinant; tags: His tag removed by PreScission; double flap: 1:2 1:3; 5' flap 1 nt (pG), 3' flap T4.

Data set [10] has as its target T1, FAN1 WT. As to the kind of experiment: cryo-EM; 3.20 Å; EMD-19844; PDB id inconsistent in paper (Data availability says 9EO1; Supp. Table 3 and text imply 9EOA); MST: 25 mM HEPES pH 7.5, 125 mM KCl, 10 mM CaCl2, 5% glycerol, 1 mM TCEP, 0.005% Tween-20, 0.1% BSA, 10 nM Cy5-DNA, 25 °C; SPR buffer not in the material. To be noted: protein: recombinant; tags: His tag removed by PreScission; double flap: 1:2 1:3; 5' flap and 3' poly-T flap.

T1 sequence (Q9Y2M0 whole entry): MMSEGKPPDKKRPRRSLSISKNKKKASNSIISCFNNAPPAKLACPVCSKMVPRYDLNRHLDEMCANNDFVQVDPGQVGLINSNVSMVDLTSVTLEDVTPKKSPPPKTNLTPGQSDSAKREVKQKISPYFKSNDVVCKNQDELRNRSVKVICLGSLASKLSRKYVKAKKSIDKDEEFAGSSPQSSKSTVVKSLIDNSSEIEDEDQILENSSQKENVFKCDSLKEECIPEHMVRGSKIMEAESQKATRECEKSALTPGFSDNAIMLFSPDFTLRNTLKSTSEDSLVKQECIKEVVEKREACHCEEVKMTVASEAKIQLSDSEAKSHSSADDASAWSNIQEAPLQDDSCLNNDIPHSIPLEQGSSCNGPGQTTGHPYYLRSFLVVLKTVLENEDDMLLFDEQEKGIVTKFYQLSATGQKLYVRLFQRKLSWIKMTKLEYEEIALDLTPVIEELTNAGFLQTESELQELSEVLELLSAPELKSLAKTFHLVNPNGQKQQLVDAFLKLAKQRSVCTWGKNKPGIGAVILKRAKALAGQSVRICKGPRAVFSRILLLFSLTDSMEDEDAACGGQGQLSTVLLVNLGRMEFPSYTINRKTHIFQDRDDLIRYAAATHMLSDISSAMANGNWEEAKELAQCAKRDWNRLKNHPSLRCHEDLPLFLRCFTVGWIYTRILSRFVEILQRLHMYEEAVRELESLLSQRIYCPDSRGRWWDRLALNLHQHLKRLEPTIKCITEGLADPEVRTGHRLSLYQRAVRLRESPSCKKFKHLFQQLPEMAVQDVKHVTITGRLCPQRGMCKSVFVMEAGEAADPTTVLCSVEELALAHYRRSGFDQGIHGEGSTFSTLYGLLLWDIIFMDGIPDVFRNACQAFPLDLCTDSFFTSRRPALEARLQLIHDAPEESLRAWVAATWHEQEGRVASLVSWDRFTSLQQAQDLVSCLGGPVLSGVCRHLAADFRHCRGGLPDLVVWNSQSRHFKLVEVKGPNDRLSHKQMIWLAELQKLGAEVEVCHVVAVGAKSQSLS
T2 sequence (P12004 whole entry, chain 1 of 2): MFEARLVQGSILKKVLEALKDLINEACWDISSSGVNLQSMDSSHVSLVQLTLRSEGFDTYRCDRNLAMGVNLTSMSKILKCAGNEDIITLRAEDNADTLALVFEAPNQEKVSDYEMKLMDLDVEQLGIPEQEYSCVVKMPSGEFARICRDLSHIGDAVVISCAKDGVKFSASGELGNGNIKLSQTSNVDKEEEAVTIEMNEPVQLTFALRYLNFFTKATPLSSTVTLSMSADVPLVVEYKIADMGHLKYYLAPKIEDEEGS
T2 sequence (Q9Y2M0 whole entry, chain 2 of 2): as the sequence (Q9Y2M0 whole entry) above
Chain of trFAN1 crystallization construct (Q9Y2M0 other isoform, or with tags, fused parts or gaps R507H;K794A;del510-518): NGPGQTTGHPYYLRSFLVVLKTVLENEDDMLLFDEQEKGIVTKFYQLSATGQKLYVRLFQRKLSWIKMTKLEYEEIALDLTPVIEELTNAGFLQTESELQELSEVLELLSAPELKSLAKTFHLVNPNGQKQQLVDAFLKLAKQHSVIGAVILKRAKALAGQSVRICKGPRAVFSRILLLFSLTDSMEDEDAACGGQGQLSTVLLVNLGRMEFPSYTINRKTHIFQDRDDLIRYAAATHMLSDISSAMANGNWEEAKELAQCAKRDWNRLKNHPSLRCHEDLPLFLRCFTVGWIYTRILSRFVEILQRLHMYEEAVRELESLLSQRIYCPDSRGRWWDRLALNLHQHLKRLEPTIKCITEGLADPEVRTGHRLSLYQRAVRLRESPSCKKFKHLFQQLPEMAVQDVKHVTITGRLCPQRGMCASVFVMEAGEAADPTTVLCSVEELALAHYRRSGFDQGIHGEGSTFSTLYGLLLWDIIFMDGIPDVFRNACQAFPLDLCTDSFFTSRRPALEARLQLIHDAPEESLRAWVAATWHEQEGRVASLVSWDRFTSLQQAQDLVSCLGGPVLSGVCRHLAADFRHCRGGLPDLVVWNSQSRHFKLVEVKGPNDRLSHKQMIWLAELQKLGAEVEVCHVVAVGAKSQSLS
Chain of FAN1 WT;PCNA WT (Q9Y2M0 whole entry, chain 1 of 2): as the sequence (Q9Y2M0 whole entry) above
Chain of FAN1 WT;PCNA WT (P12004 whole entry, chain 2 of 2): as the sequence (P12004 whole entry, chain 1 of 2) above
Chain of FAN1 WT;PCNA D232A (Q9Y2M0 whole entry, chain 1 of 2): as the sequence (Q9Y2M0 whole entry) above
Chain of FAN1 WT;PCNA D232A (P12004 whole entry D232A, chain 2 of 2): as the sequence (P12004 whole entry, chain 1 of 2) above, with D232A counted along it
Chain of PCNA D232A;trFAN1 R507H (P12004 whole entry D232A, chain 1 of 2): as the sequence (P12004 whole entry, chain 1 of 2) above, with D232A counted along it
Chain of PCNA D232A;trFAN1 R507H (Q9Y2M0 371-1017 R507H, chain 2 of 2): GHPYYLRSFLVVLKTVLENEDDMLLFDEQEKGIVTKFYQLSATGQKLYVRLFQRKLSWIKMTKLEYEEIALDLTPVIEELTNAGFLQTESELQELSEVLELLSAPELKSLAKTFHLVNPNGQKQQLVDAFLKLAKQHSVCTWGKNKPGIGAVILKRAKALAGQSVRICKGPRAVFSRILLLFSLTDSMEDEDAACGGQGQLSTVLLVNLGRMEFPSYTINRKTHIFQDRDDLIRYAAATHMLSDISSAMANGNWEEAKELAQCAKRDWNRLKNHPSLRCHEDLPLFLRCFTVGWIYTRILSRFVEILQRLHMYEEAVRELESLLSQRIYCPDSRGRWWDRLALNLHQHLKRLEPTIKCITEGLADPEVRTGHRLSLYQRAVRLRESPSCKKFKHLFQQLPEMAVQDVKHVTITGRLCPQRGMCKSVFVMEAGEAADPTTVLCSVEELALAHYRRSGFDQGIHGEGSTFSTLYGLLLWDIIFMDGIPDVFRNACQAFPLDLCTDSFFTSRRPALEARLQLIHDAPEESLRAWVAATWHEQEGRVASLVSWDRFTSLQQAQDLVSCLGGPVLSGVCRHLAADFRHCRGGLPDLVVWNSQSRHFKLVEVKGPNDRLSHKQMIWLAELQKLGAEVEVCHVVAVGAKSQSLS
Chain of PCNA WT;FAN1 R507H (P12004 whole entry, chain 1 of 2): as the sequence (P12004 whole entry, chain 1 of 2) above
Chain of PCNA WT;FAN1 R507H (Q9Y2M0 whole entry R507H, chain 2 of 2): as the sequence (Q9Y2M0 whole entry) above, with R507H counted along it
Chain of PCNA WT;trFAN1 WT (P12004 whole entry, chain 1 of 2): as the sequence (P12004 whole entry, chain 1 of 2) above
Chain of PCNA WT;trFAN1 WT (Q9Y2M0 371-1017, chain 2 of 2): as the sequence (Q9Y2M0 371-1017 R507H, chain 2 of 2) above, with H137R counted along it

B1: 113 bp homoduplex (dsDNA)
DNA 1: CCGCTTTCTTCCCTTCCTTTGTGCACACGTTCCGAGATATCCTAGCAAGTGATCGTCTATGTAGCTCAAGAGTTCGACTTTCCCCGCTAAGCTCTACATCCGAGGCTCGCCGA
DNA 2: TCGGCGAGCCTCGGATGTAGAGCTTAGCGGGGAAAGTCGAACTCTTGAGCTACATAGTACGATCACTTGCTAGGATATCTCGGAACGTGTGCACAAAGGAAGGGAAGAAAGCGG
Take B1: the Kd is 5.4 ± 1.7 nM in [1]; 7 ± 2.4 nM in [2]; 3900 ± 1300 nM in data set [3]; 14000 ± 5100 nM in data set [4]; 3000 ± 800 nM in data set [5]; 1600 ± 900 nM in data set [6]. The Kd in data set [7] came to 7.2 ± 2.4 nM.

B2: 113 bp (CAG)2 extrahelical extrusion (dsDNA)
DNA 1: CCGCTTTCTTCCCTTCCTTTGTGCACACGTTCCGAGATATCCTAGCAAGTGATCGTCAGCAGCTATGTAGCTCAAGAGTTCGACTTTCCCCGCTAAGCTCTACATCCGAGGCTCGCCGA
DNA 2: TCGGCGAGCCTCGGATGTAGAGCTTAGCGGGGAAAGTCGAACTCTTGAGCTACATAGTACGATCACTTGCTAGGATATCTCGGAACGTGTGCACAAAGGAAGGGAAGAAAGCGG
B2: in [8], the binding result was “binds”.

B3: 5'pG1/3'T4 double flap DNA (crystallography) (dsDNA)
DNA 1: AACACGCCTAGACTCCTCA
DNA 2: TTTGAGGAGTCTTTTT
DNA 3: GAGGCGTG
modifications: 5'-phosphate on strand 3
B3: in data set [9], the binding result was “binds”.

B4: 5' flap DNA (cryo-EM substrate) (dsDNA)
DNA 1: CCCGTCCAGGTCTCGTCCGCGCCACTCGTGTCCAGCGTCG
DNA 2: TGCGGACGAGACCTGGACGGG
DNA 3: CGACGCTGGACACGAGTGGCTTTTTTTT
modifications: 5'-phosphate on strand 2
Regarding B4, the binding result in [10] was “binds”.

For the origin of these results see PMC12078616, “A FAN1 point mutation associated with accelerated Huntington’s disease progression alters its PCNA-mediated assembly on DNA”.
